Reference: US20250115668A1 (BIOCYTOGEN PHARMACEUTICALS BEIJING, published 2025)
Where two headings read alike, the source gives them in different places.

T1: Human OX40 protein having a His-Tag (human, UniProt P43489 29-216, limits assumed)
T1 construct: Bought recombinant protein; also called hOX40-His; hOX40; not shown: His tag
T1 sequence (looked up): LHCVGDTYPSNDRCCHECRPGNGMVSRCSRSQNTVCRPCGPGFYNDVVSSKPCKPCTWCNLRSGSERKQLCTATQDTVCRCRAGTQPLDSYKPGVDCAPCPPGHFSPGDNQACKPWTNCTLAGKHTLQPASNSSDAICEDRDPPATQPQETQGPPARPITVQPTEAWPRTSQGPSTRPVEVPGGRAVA

T2: human OX40 expressed on transfected cells (human, UniProt P43489 29-277)
T2 construct: whole, on cells; also called hOX40 on HEK293T-hCTLA4-hOX40 cells; on Jurkat-luc-hOX40
T2 sequence (looked up): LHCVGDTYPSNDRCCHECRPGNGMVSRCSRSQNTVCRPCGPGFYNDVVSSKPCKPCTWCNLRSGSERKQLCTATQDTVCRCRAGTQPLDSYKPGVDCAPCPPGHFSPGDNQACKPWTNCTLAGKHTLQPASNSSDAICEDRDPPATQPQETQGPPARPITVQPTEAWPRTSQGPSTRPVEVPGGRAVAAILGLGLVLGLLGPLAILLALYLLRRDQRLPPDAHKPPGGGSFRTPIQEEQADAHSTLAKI

T3: human CTLA4 expressed on transfected cells (human, UniProt P16410 36-223)
T3 construct: whole, on cells; also called hCTLA4 on HEK293T-hCTLA4-hOX40 cells; on Jurkat-luc-hCTLA4
T3 sequence (looked up): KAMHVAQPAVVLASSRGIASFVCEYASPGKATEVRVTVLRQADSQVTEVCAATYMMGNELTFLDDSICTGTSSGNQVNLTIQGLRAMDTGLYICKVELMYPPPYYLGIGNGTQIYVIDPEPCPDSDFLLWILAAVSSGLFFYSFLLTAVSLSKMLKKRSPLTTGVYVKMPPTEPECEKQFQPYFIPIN

T4: Human CTLA4 protein having a His-Tag (human, UniProt P16410 37-162, limits assumed)
T4 construct: Bought recombinant protein; also called hCTLA4-His; hCTLA4; not shown: His tag
T4 sequence (looked up): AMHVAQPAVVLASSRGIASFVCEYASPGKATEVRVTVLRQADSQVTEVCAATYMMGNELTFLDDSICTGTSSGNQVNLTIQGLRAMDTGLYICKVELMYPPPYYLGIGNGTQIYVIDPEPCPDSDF


Experiments:
[1] = molecular target: T1, Human OX40 protein having a His-Tag; assay: SPR Biacore 8K, Protein A chip; antibody captured, antigen analyte
[2] = molecular target: T2, human OX40 expressed on transfected …; assay: flow cytometry (MFI, anti-hIgG-Fc-Alexa Fluor 647) on HEK293T-hCTLA4-hOX40 cells co-expressing human CTLA4 and human OX40
[3] = molecular target: T3, human CTLA4 expressed on transfected …; assay: flow cytometry (MFI, anti-hIgG-Fc-Alexa Fluor 647) on HEK293T-hCTLA4-hOX40 cells co-expressing human CTLA4 and human OX40; the bispecific can bind both antigens on the same cell, signal not separable by target
[4] = molecular target: T2, human OX40 expressed on transfected …; assay: as above
[5] = molecular target: T1, Human OX40 protein having a His-Tag; assay: SPR Biacore 8K, Protein A chip; antibody captured, antigen analyte; remark: listed apart in the source
[6] = molecular target: T5, Cynomolgus/Rhesus macaque OX40/TNFRSF4/CD134 Protein, His Tag (Cynomolgus/Rhesus macaque); assay: as above
T5 construct: Bought recombinant protein; also called fasOX40-His; monkey OX40

[7] = molecular target: T3, human CTLA4 expressed on transfected …; assay: flow cytometry (MFI, anti-hIgG-Fc-Alexa Fluor 647) on HEK293T-hCTLA4-hOX40 cells co-expressing human CTLA4 and human OX40; the bispecific can bind both antigens on the same cell, signal not separable by target; remark: listed apart in the source
[8] = molecular target: T2, human OX40 expressed on transfected …; assay: as above; remark: listed apart in the source
[9] = molecular target: T3, human CTLA4 expressed on transfected …; assay: flow cytometry (MFI, anti-hIgG-Fc-Alexa Fluor 647) on HEK293T-hCTLA4-hOX40 cells co-expressing human CTLA4 and human OX40
[10] = molecular target: T4, Human CTLA4 protein having a His-Tag; assay: SPR Biacore 8K, Protein A chip; antibody captured, antigen analyte
[11] = molecular target: T3, human CTLA4 expressed on transfected …; assay: flow cytometry (MFI, anti-hIgG-Fc-Alexa Fluor 647) on HEK293T-hCTLA4-hOX40 cells co-expressing human CTLA4 and human OX40; remark: listed apart in the source
[12] = molecular target: T3, human CTLA4 expressed on transfected …; assay: as above; remark: listed apart in the source
[13] = molecular target: T3, human CTLA4 expressed on transfected …; assay: flow cytometry (MFI, anti-hIgG-Fc-Alexa Fluor 647) on HEK293T-hCTLA4-hOX40 cells co-expressing human CTLA4 and human OX40; the bispecific can bind both antigens on the same cell, signal not separable by target; remark: listed apart in the source
[14] = molecular target: T2, human OX40 expressed on transfected …; assay: as above; remark: listed apart in the source
[15] = molecular target: T2, human OX40 expressed on transfected …; assay: flow cytometry (MFI, anti-hIgG-Fc-Alexa Fluor 647) on HEK293T-hCTLA4-hOX40 cells co-expressing human CTLA4 and human OX40; remark: listed apart in the source

Kd [1]	koff [1]	kon [1]	Kd [5]	koff [5]	kon [5]	Kd [6]	koff [6]	kon [6]	Binder	further results
65.4 nM	0.00738 s⁻¹	113000 M⁻¹ s⁻¹	–	–	–	–	–	–	OX-4C8-IgG1 (antibody, V domains shown, Human anti-OX40 antibody; IgG1 constant regions) VH: QVQLVESGPTLVKPTQTLTLTCTFSGFSLSTTRVGVGWIRQPPGKALEWLALIYWDDDKRYSPSLKNRLTLTKDTSKNQVVLTMTNMDPVDTATYYCAHFGSGTYYNVDY VL: not shown	EC50 (read off the curve) [2]: ~0.3 µg/mL
–	–	–	16 nM	0.00784 s⁻¹	490000 M⁻¹ s⁻¹	18.9 nM	0.00966 s⁻¹	510000 M⁻¹ s⁻¹	OX-H8-CT-3D2-IgG1-SI (bispecific antibody, V domains shown, SI mutations (S239D, I332E, EU)) VH 1: QITLKESGPTLVKPTQTLTLTCTFSGFSLSSRGVGVGWIRQPPGKALEWLALIYWDDDKRYSPSLKSRLTITKDTSKNQVVLTMANMDPVDTATYYCAHSHRGYENFWGQGTLVTVSS VH 2: QVQLVESGPGLVKPSETLSLTCTVSGDSIRSSHYYWGWIRQPPGKGLEWIGSIYFNGITYYSPSLKSRVTISVDTSKNQFSLKLTSVTAADTAVFYCARHNNYYDSSGYWYYFDYWGQGTLVTVSS VL: not shown	EC50 (read off the curve) [13]: ~1 µg/mL; EC50 (read off the curve) [14]: ~1 µg/mL
8.68 nM	0.00441 s⁻¹	508000 M⁻¹ s⁻¹	–	–	–	–	–	–	OX-H8-IgG1 (antibody, V domains shown, Monoclonal anti-OX40 antibody, IgG1 constant regions) VH: QITLKESGPTLVKPTQTLTLTCTFSGFSLSSRGVGVGWIRQPPGKALEWLALIYWDDDKRYSPSLKSRLTITKDTSKNQVVLTMANMDPVDTATYYCAHSHRGYENFWGQGTLVTVSS VL: EIVLTQSPATLSLSPGERATLSCRASQSINSYLAWYQQNPGQAPRLLIYLASNRATGIPARFSGSGSGTDFTLTITSLEPEDFAVYYCQQRSDWPPTFGQGTKVEIK	EC50 (read off the curve) [15]: ~7 µg/mL

The remaining lines, values behind:

Binder	Kd [1]	koff [1]	kon [1]	Kd [5]	koff [5]	kon [5]	Kd [6]	koff [6]	kon [6]	further results
OX-H7-CT-3D2-IgG1-SI (bispecific antibody, V domains shown, SI mutations (S239D, I332E, EU)) VH 1: QITLKESGPTLVKPAQTLTLTCTFSGFSLSTSGVGVGWIRQPPGKALEWLALIYWDDDKLYSPSLKSRLTITKDTSKNQVVLAMTNMDPVDTATYYCAHSQLGRDDYWGQGTLVTVSS VH 2: QVQLVESGPGLVKPSETLSLTCTVSGDSIRSSHYYWGWIRQPPGKGLEWIGSIYFNGITYYSPSLKSRVTISVDTSKNQFSLKLTSVTAADTAVFYCARHNNYYDSSGYWYYFDYWGQGTLVTVSS VL: not shown	–	–	–	182 nM	0.00169 s⁻¹	9260 M⁻¹ s⁻¹	163 nM	0.001 s⁻¹	6170 M⁻¹ s⁻¹	EC50 (read off the curve) [3]: ~1 µg/mL; EC50 (read off the curve) [4]: ~1 µg/mL
OX-4C8-CT-3D2-IgG1-SI (bispecific antibody, V domains shown, 1+1 knobs-into-holes human IgG1 with common light chain; SI mutations (S239D, I332E, EU)) VH 1: QVQLVESGPTLVKPTQTLTLTCTFSGFSLSTTRVGVGWIRQPPGKALEWLALIYWDDDKRYSPSLKNRLTLTKDTSKNQVVLTMTNMDPVDTATYYCAHFGSGTYYNVDYWGQGTLVTVSSAS VH 2: QVQLVESGPGLVKPSETLSLTCTVSGDSIRSSHYYWGWIRQPPGKGLEWIGSIYFNGITYYSPSLKSRVTISVDTSKNQFSLKLTSVTAADTAVFYCARHNNYYDSSGYWYYFDYWGQGTLVTVSS VL: not shown	–	–	–	17.6 nM	0.00258 s⁻¹	147000 M⁻¹ s⁻¹	6.4 nM	0.0037 s⁻¹	578000 M⁻¹ s⁻¹	EC50 (read off the curve) [7]: ~2 µg/mL; EC50 (read off the curve) [8]: ~2 µg/mL
CT-3D2-IgG1 (antibody, V domains shown, Human anti-CTLA4 antibody from RenLite mice) VH: QVQLVESGPGLVKPSETLSLTCTVSGDSIRSSHYYWGWIRQPPGKGLEWIGSIYFNGITYYSPSLKSRVTISVDTSKNQFSLKLTSVTAADTAVFYCARHNNYYDSSGYWYYFDYWGQGTLVTVSS VL: not shown	–	–	–	–	–	–	–	–	–	EC50 (read off the curve) [9]: ~2 µg/mL; Kd [10]: 17.1 nM; koff [10]: 0.00079 s⁻¹; kon [10]: 46200 M⁻¹ s⁻¹; EC50 (read off the curve) [11]: ~2 µg/mL; EC50 (read off the curve) [12]: ~2 µg/mL
